How the values were obtained:
[1] = target: recombinant purified FRα (ECL assay calibrator) (human) (UniProt P15328); experiment: ECL sandwich competition; competitors 9F3 capture / 24F12 detection; FRα standard STD01; MORAb-003 50 µg/mL
[2] = target: recombinant purified FRα (ECL assay calibrator) (human) (UniProt P15328); experiment: ECL sandwich competition; competitors 9F3 capture / 24F12 detection; FRα standard STD03; MORAb-003 50 µg/mL
[3] = target: recombinant purified FRα (ECL assay calibrator) (human) (UniProt P15328); experiment: ECL sandwich competition; competitors 9F3 capture / 24F12 detection; FRα standard STD04; MORAb-003 10 µg/mL
[4] = target: recombinant purified FRα (ECL assay calibrator) (human) (UniProt P15328); experiment: ECL sandwich competition; competitors 9F3 capture / 24F12 detection; FRα standard STD06; MORAb-003 50 µg/mL
[5] = target: recombinant purified FRα (ECL assay calibrator) (human) (UniProt P15328); experiment: ECL sandwich competition; competitors 9F3 capture / 24F12 detection; FRα standard STD08; MORAb-003 50 µg/mL
[6] = target: endogenous folate receptor alpha in human serum and plasma samples (human) (UniProt P15328); experiment: ECL sandwich capture 19D4.B7 / detection 26A9.C4; serum incubated overnight with 10 µg/mL MORAb-003
[7] = target: recombinant purified FRα (ECL assay calibrator) (human) (UniProt P15328); experiment: ECL sandwich capture 24H8.D3 / detection 6A2.G7; calibrator incubated overnight with 10 µg/mL MORAb-003
[8] = target: recombinant purified FRα (ECL assay calibrator) (human) (UniProt P15328); experiment: ECL sandwich capture 24H8.F3 / detection 6A2.G7; calibrator incubated overnight with 10 µg/mL MORAb-003
[9] = target: recombinant purified FRα (ECL assay calibrator) (human) (UniProt P15328); experiment: ECL sandwich capture 6A2.G7 / detection 19D2.G9; calibrator incubated overnight with 10 µg/mL MORAb-003
[10] = target: recombinant purified FRα (ECL assay calibrator) (human) (UniProt P15328); experiment: ECL sandwich capture 6A2.G7 / detection 24H8.F3; calibrator incubated overnight with 10 µg/mL MORAb-003
[11] = target: endogenous folate receptor alpha in human serum and plasma samples (human) (UniProt P15328); experiment: ECL sandwich capture 1A8.G11.E7 / detection 24H8.F3; serum incubated overnight with 10 µg/mL MORAb-003
[12] = target: recombinant purified FRα (ECL assay calibrator) (human) (UniProt P15328); experiment: ECL sandwich capture 19D4.B7 / detection 24H8.D3; calibrator incubated overnight with 10 µg/mL MORAb-003
[13] = target: recombinant purified FRα (ECL assay calibrator) (human) (UniProt P15328); experiment: ECL sandwich capture 24H8.F3 / detection 19D4.B7; calibrator incubated overnight with 10 µg/mL MORAb-003
[14] = target: recombinant purified FRα (ECL assay calibrator) (human) (UniProt P15328); experiment: ECL sandwich capture 1A8.G11.E7 / detection 6A2.G7; calibrator incubated overnight with 10 µg/mL MORAb-003
[15] = target: recombinant purified FRα (ECL assay calibrator) (human) (UniProt P15328); experiment: ECL sandwich capture 19D4.B7 / detection 1C6.E12.G8; calibrator incubated overnight with 10 µg/mL MORAb-003
[16] = target: recombinant purified FRα (ECL assay calibrator) (human) (UniProt P15328); experiment: ECL sandwich capture 19D4.B7 / detection 1D2.G8.G10; calibrator incubated overnight with 10 µg/mL MORAb-003
[17] = target: recombinant purified FRα (ECL assay calibrator) (human) (UniProt P15328); experiment: ECL sandwich capture 19D4.B7 / detection 1A8.G11.E7; calibrator incubated overnight with 10 µg/mL MORAb-003
[18] = target: recombinant purified FRα (ECL assay calibrator) (human) (UniProt P15328); experiment: ECL sandwich capture 30G6.G6.G4.E9 / detection 6A2.G7; calibrator incubated overnight with 10 µg/mL MORAb-003
[19] = target: recombinant purified FRα (ECL assay calibrator) (human) (UniProt P15328); experiment: ECL sandwich capture 6A2.G7 / detection 30G6.G6.G4.E9; calibrator incubated overnight with 10 µg/mL MORAb-003
[20] = target: recombinant purified FRα (ECL assay calibrator) (human) (UniProt P15328); experiment: ECL sandwich capture 26A9.C4 / detection 30G6.G6.G4.E9; calibrator incubated overnight with 10 µg/mL MORAb-003
[21] = target: recombinant purified FRα (ECL assay calibrator) (human) (UniProt P15328); experiment: ECL sandwich capture 30G6.G6.G4.E9 / detection 24H8.D3; calibrator incubated overnight with 10 µg/mL MORAb-003
[22] = target: recombinant purified FRα (ECL assay calibrator) (human) (UniProt P15328); experiment: ECL sandwich capture 1C6.E12.G8 / detection 30G6.G6.G4.E9; calibrator incubated overnight with 10 µg/mL MORAb-003
[23] = target: recombinant purified FRα (ECL assay calibrator) (human) (UniProt P15328); experiment: ECL sandwich capture 1D2.G8.G10 / detection 30G6.G6.G4.E9; calibrator incubated overnight with 10 µg/mL MORAb-003
[24] = target: recombinant purified FRα (ECL assay calibrator) (human) (UniProt P15328); experiment: ECL sandwich capture 30G6.G6.G4.E9 / detection 1C6.E12.G8; calibrator incubated overnight with 10 µg/mL MORAb-003

recombinant purified FRα (ECL assay calibrator) (human), sequence (P15328 25-234 limits assumed): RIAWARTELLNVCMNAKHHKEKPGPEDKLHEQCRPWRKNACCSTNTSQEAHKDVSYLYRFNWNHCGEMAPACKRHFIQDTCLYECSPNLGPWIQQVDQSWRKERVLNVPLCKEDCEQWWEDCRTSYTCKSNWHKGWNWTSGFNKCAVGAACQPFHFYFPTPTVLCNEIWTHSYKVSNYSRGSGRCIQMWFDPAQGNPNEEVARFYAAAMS
endogenous folate receptor alpha in human serum and plasma samples (human), sequence (P15328 25-234 limits assumed, form in doubt): as the sequence (P15328 25-234 limits assumed) above

% of signal without MORAb-003 (MORAb-003 interference) [1]: 54% | % of signal without MORAb-003 (MORAb-003 interference) [2]: 58% | % of signal without MORAb-003 (MORAb-003 interference) [3]: 73% | % of signal without MORAb-003 (MORAb-003 interference) [4]: 78% | % of signal without MORAb-003 (MORAb-003 interference) [5]: 115% | Drug suppression of serum [6]: -3.77% | Drug Suppression of Cal Signal at 500 pg/mL [7]: -15% | Drug Suppression of Cal Signal at 500 pg/mL [8]: 7% | Drug Suppression of Cal Signal at 500 pg/mL [9]: -7% | Drug Suppression of Cal Signal at 500 pg/mL [10]: -5% | Drug suppression of serum [11]: -61.3% | Drug Suppression of Cal Signal at 500 pg/mL [12]: -6% | Drug Suppression of Cal Signal at 500 pg/mL [13]: 9% | Drug Suppression of Cal Signal at 500 pg/mL [14]: 16% | Drug Suppression of Cal Signal at 500 pg/mL [15]: -18% | Drug Suppression of Cal Signal at 500 pg/mL [16]: 2% | Drug Suppression of Cal Signal at 500 pg/mL [17]: -2% | Drug Suppression of Cal Signal at 500 pg/mL [18]: -5% | Drug Suppression of Cal Signal at 500 pg/mL [19]: -1% | Drug Suppression of Cal Signal at 500 pg/mL [20]: -28% | Drug Suppression of Cal Signal at 500 pg/mL [21]: -2% | Drug Suppression of Cal Signal at 500 pg/mL [22]: -9% | Drug Suppression of Cal Signal at 500 pg/mL [23]: -11% | Drug Suppression of Cal Signal at 500 pg/mL [24]: -7%
B1: farletuzumab (MORAb-003) (antibody, part only; not given: Constant regions, V domains shown, not shown: another chain or arm of the molecule)
VH: EVQLVESGGGVVQPGRSLRLSCSASGFTFSGYGLSWVRQAPGKGLEWVAMISSGGSYTYYADSVKGRFAISRDNAKNTLFLQMDSLRPEDTGVYFCARHGDDPAWFAYWGQGTPVTVSS
VL: DIQLTQSPSSLSASVGDRVTITCSVSSSISSNNLHWYQQKPGKAPKPWIYGTSNLASGVPSRFSGSGSGTDYTFTISSLQPEDIATYYCQQWSSYPYMYTFGQGTKVEIK
